From US20140315822A1

Assays:
[1] = target: T1, PDZ domain of the human MAST2 protein (human), Q6P0Q8
T1 chain: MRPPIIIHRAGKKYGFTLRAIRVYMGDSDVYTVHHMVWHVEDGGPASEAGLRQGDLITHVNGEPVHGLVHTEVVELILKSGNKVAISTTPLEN

[2] = target: T1, PDZ domain of the human MAST2 protein …; assay: ITC, 298 K, MAST2-PDZ titrated with peptide

SWEVHGQQTRL (modifications not checked) [454 (Neurovita 3)]
gain of affinity as compared to Neurovita1 [1]: 20 fold
TΔS (entropy) [2]: 1110
n (stoechiometry) [2]: 1.01
ΔH (enthalpy) [2]: -8720
